Where two headings read alike, the source gives them in different places.
What was measured:
[1] = Procedure: […] (test sample). Delipidation was carried out by extracting the lipids with an equal volume of 2:1 (v/v) chloroform:methanol.
The samples were loaded onto a reverse-phase C18 HPLC column and eluted with a linear gradient (25-58% over 33 min.) of acetonitrile (containing 0.1% TFA). Elution profiles were followed by absorbance (220 nm) and radioactivity.

[2] = HDL cholesterol in rabbits after injection of phospholipid/peptide complexes; assay type: in vivo, Male New Zealand White rabbits; set-up: HDL Cholesterol: unit not given here
Procedure: Small discoidal particles consisting of phospholipid (DPPC) and peptide were prepared following the cholate dialysis method. The phospholipid was dissolved in chloroform and dried under a stream of nitrogen. The peptide was dissolved in buffer (saline) at a concentration of 1-2 mg/ml. The lipid film was redissolved in buffer containing cholate (43° C.) and the peptide solution was added at a 3:1 phospholipid/peptide weight ratio. The mixture was incubated overnight at 43° C. and then dialyzed at 43° C. (24 hr.), room temperature (24 hr.) and 4° C. (24 hr.), with three changes of buffer (large volumes) at temperature point. The complexes were filter sterilized (0.22 μm) for injection and storage at 4° C.
Male New Zealand White rabbits (2.5-3 kg) were injected intravenously with a dose of phospholipid/peptide complex (5 or 10 mg/kg bodyweight, expressed as peptide) in a single bolus injection not exceeding 10-15 ml. The animals were slightly sedated before the manipulations. Blood samples (collected on EDTA) were taken before and 5, 15, 30, 60, 240 and 1440 minutes after injection. The hematocrit (Hct) was determined for each sample. Samples were aliquoted and stored at −20° C. before analysis.
Plasma Lipids. The total plasma cholesterol, plasma triglycerides and plasma phospholipids were determined enzymatically using commercially available assays according to the manufacturer's protocols (Boehringer Mannheim, Mannheim, Germany and Biomerieux, 69280, Marcy-L'étoile, France).
Lipoprotein Profiles. The plasma lipoprotein profiles of the fractions obtained after the separation of the plasma into its lipoprotein fractions were determined by spinning in a sucrose density gradient. The fractions were collected and in each individual fraction the phospholipid and cholesterol content was measured enzymatically.

[3] = system: LDL
Procedure: (§1) The association of peptide 4 (SEQ ID NO:4) with human lipoprotein fractions was determined by incubating ^14C-labeled peptide 4 (SEQ ID NO:4) with each lipoprotein class (HDL, LDL and VLDL) and a mixture of the different lipoprotein classes.
(§2) HDL, LDL and VLDL were isolated by KBr density gradient ultracentrifugation at d=1.21 g/ml and purified by FPLC on a Superose 6B column size exclusion column (chromatography was carried out with a flow rate of 0.7 ml/min. and a running buffer of 10 mM Tris (pH 8), 115 mM NaCl, 2 mM EDTA and 0.01% NaN3). ^14C-labeled peptide 4 was incubated with HDL, LDL and VLDL at a peptide:phospholipid ratio of 1:5 (mass ratio) for 2 h at 37° C. The required amount of lipoprotein (volumes based on amount needed to yield 1000 μg) was mixed with 0.2 ml of peptide stock solution (1 mg/ml) and the solution was brought up to 2.2 ml using 0.9% of NaCl according to TABLE XIII:
(§3) After incubating for 2 hr. at 37° C., an aliquot (0.1 ml) was removed for liquid scintillation counting to determine the total radioactivity, the density of the remaining incubation mixture was adjusted to 1.21 g/ml with KBr, and the samples centrifuged at 100,000 rpm (300,000 g) for 24 hours at 4° C. in a TLA 100.3 rotor using a Beckman tabletop ultracentrifuge. The resulting supernatant was fractionated by removing 0.3 ml aliquots from the top of each sample for a total of 5 fractions, and 0.05 ml of each fraction was used for liquid scintillation counting. The top two fractions contain the floating lipoproteins, the other fractions (3-5) correspond to proteins/peptides in solution.

[4] = system: mixture of HDL, LDL and VLDL
Procedure: as §1, §2, §3

[5] = system: HepG2 hepatoma cells; experiment: Cholesterol efflux; assay type: cell-based; conditions: peptide:DMPC complexes 1:2 (w:w), 1-25 μg/ml, 24 hours; compared with native human ApoA-I
Procedure: HepG2 hepatoma cells were plated into 6-well culture dishes and grown to confluence. Cells were labeled with ^3H-cholesterol by drying the cholesterol, then adding 1% bovine serum albumin (BSA) in phosphate buffered saline (PBS), sonicating the solution, and adding 0.2 ml labeling solution and 1.8 ml growth medium to the cells, so that each well contained 2 μCi of radioactivity. Cells were incubated for 24 h with the labeling medium.
Peptide (or protein):DMPC complexes were prepared at a 1:2 peptide (or protein):DMPC ratio (w:w). […] Peptide or protein concentration in the final solution was 1 mg/ml.
Labeling media was removed from the cells and the cells were washed with PBS prior to addition of complexes. 1.6 ml of growth medium was added to each well, followed by peptide (or protein): DMPC complex and sufficient PBS to bring the final volume to 2 ml per well. The final peptide or ApoA-I concentrations were 1, 2.5, 5, 7.5 and 25 μg/ml medium. After 24 hours of incubation at 37° C., the medium was removed, and the cells washed with 2 ml of 1% BSA/PBS, followed by 2 washes with 2 ml each of PBS. The amount of ^3H-cholesterol effluxed into the medium was determined by liquid scintillation counting.

[6] = Control (peptide without lipoprotein)

Sequence: PVLDLFRELLNELLEALKQKLK [peptide 4]
- peptide remaining intact ([1]; 8 day incubation in human serum, 37° C.): more than 80%
- degraded peptide (3 min. peak), share of total radioactivity ([1]; human plasma, 8 days at 37° C.): approximately 15%
- HDL Cholesterol ([2]; 10 mg/kg i.v. as peptide/DPPC complexes, 15 min.): 428
- HDL Cholesterol ([2]; 10 mg/kg i.v. as peptide/DPPC complexes, time not printed (row between 0 and 15 min.)): 408
- Increase in HDL Cholesterol ([2]; 10 mg/kg, 15 min.): 31.3%
- HDL Cholesterol ([2]; 10 mg/kg, 60 min.): 387
- Increase in HDL Cholesterol ([2]; 10 mg/kg, 60 min.): 18.9%
- HDL Cholesterol ([2]; 10 mg/kg, 240 min.): 291
- Increase in HDL Cholesterol ([2]; 10 mg/kg, 240 min.): −10.7%
- HDL Cholesterol ([2]; 10 mg/kg, 1440 min.): 347
- Increase in HDL Cholesterol ([2]; 10 mg/kg, 1440 min.): 6.6%
- duration of the increase in cholesterol of the HDL fractions ([2]; 10 mg/kg, apparent at 5 min. following injection): approximately 1 hr
- Increase in HDL Cholesterol ([2]; 10 mg/kg, time not printed (row between 0 and 15 min.)): 25.2%
- Recovery ([3]; LDL/Peptide): 89%
- radioactivity Total ([3]; LDL/Peptide): 89330
- radioactivity Total before centrifugation ([3]; LDL/Peptide): 100452
- radioactivity in Fraction 1 ([3]; LDL/Peptide): 43740
- radioactivity in Fraction 2 ([3]; LDL/Peptide): 15140
- radioactivity in Fraction 3 ([3]; LDL/Peptide): 11880
- radioactivity in Fraction 4 ([3]; LDL/Peptide): 10860
- radioactivity in Fraction 5 ([3]; LDL/Peptide): 7710
- share of total radioactivity in fractions 1 and 2 (associated with lipoprotein) ([3]; incubation with isolated LDL): 66%
- Recovery [4, 6]: 89%
- radioactivity Total [4, 6]: 79170
- radioactivity Total before centrifugation [4, 6]: 88550
- radioactivity in Fraction 1 [4, 6]: 650
- radioactivity in Fraction 2 [4, 6]: 1000
- radioactivity in Fraction 3 [4, 6]: 6590
- radioactivity in Fraction 4 [4, 6]: 36550
- radioactivity in Fraction 5 [4, 6]: 34380
- FPLC analysis of the LP/peptide incubation mixture (in words) ([4]; LP/Peptide): nearly all of the ^14C-labeled peptide 4 was associated with the HDL fraction
- Recovery ([4]; LP/Peptide): 87%
- radioactivity Total ([4]; LP/Peptide): 83650
- radioactivity Total before centrifugation ([4]; LP/Peptide): 96646
- radioactivity in Fraction 2 ([4]; LP/Peptide): 12990
- radioactivity in Fraction 3 ([4]; LP/Peptide): 3810
- radioactivity in Fraction 4 ([4]; LP/Peptide): 1510
- radioactivity in Fraction 5 ([4]; LP/Peptide): 5090
- radioactivity in Fraction 1 ([4]; LP/Peptide (HDL, LDL and VLDL)): 60250
- labeled peptide associated with the lipoprotein fraction ([4]; LP/Peptide, all lipoprotein fractions): 88%
- cholesterol efflux (in words) [5]: more efficient at cholesterol efflux than ApoA-I
